# Measurements taken from article doi:10.1101/2021.01.20.427433, “Microarray screening reveals a non-conventional SUMO-binding mode linked to DNA repair by non-homologous end-joining” (bioRxiv, 2021).
# B1: 6xHis-XRCC4^1-164 (C-to-A), wildtype for the SIMs (domain or fragment, human, UniProt Q13426 1-164, looked up)
# chain: MERKISRIHLVSEPSITHFLQVSWEKTLESGFVITLTDGHSAWTGTVSESEISQEADDMAMEKGKYVGELRKALLSGAGPADVYTFNFSKESAYFFFEKNLKDVSFRLGSFNLEKVENPAEVIRELIAYALDTIAENQAKNEHLQKENERLLRDWNDVQGRFEK
# modifications: 15N-labelled where it is the observed protein in NMR
# notes: The three cysteines are printed for the 1-180 construct amplified from this vector; also called XRCC4 head domain; source: E. coli BL21-CodonPlus (DE3)-RIL (pET-28a), purified; isotope-labelled in minimal medium for NMR
# Target: T1, XLF-6xHis (human, UniProt Q9H9Q4 1-299)
# T1 construct: XLF, human, amplified from pGEX2TKP-XLF; source: E. coli (pHAT5), purified (His-trap, HiTrap Q)
# T1 sequence (Q9H9Q4 whole entry): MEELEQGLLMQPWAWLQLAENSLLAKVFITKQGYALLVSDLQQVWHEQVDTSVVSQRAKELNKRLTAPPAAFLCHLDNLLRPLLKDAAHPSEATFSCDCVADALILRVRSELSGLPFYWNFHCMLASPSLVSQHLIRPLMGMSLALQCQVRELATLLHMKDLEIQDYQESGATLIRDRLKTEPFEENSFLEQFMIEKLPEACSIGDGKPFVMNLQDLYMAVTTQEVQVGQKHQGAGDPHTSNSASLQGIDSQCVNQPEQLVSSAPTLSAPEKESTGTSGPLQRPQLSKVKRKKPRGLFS
# Assay: BLI; XLF-6xHis and XRCC4^1-164 wildtype or mutants
# Details: both partners purified
binder,measurement,value
B1,binding result,binds
